For assay [1], the target named is human glucagon-like peptide 1 receptor (human, UniProt P43220 24-463). The experiment in a line: cell-based or functional assay.
Assay [2] concerns the target human glucagon receptor (human, UniProt P47871 26-477). The experiment in a line: cell-based or functional assay.

Non-standard residues stand in square brackets, D forms with d.

Chain of human glucagon-like peptide 1 receptor (P43220 24-463): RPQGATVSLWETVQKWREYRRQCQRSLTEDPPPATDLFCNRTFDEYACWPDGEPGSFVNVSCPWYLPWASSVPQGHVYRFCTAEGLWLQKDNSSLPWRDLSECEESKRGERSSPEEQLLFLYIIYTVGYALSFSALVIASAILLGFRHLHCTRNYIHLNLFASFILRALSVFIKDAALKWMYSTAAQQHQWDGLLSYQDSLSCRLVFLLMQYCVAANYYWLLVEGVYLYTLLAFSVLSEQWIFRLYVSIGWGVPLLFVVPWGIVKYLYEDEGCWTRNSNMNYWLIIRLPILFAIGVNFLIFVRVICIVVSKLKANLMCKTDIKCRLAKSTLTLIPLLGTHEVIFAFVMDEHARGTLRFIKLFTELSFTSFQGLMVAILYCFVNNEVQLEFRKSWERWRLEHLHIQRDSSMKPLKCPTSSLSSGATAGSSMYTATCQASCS

With H-HSQGTFTSDYSKYLDRARAHDFVAWLKST-NH2 [ZP2648], the “EC50 of cAMP formation, HEK293 cells expressing human GLP-1R” value in assay [1] was 100 pM. Besides, the “EC50 of cAMP formation, HEK293 cells expressing human Glucagon-R” value in assay [2] was determined as 200 pM.

As for H-HSQGTFTSDYSKYLDRARADDFVAWLKEA-NH2 [ZP2635], the “EC50 of cAMP formation, HEK293 cells expressing human GLP-1R” value in assay [1] came to 200 pM. Also, the “EC50 of cAMP formation, HEK293 cells expressing human Glucagon-R” value in assay [2] came out at 200 pM.

Turning to H-HSQGTFTSDYSKYLDRARADDFVAWLKST-NH2 [ZP2495], the “EC50 of cAMP formation, HEK293 cells expressing human GLP-1R” value in assay [1] is 230 pM. Also, the “EC50 of cAMP formation, HEK293 cells expressing human Glucagon-R” value in assay [2] came to 500 pM.

Turning to H-HSQGTFTSDYSKYLDRARADDFVAWLERA-NH2 [ZP2650], the “EC50 of cAMP formation, HEK293 cells expressing human GLP-1R” value in assay [1] is 800 pM. In assay [2], the “EC50 of cAMP formation, HEK293 cells expressing human Glucagon-R” value was 70 pM.

Take H-HSQGTFTSDYSKYLDRARADDFVEWLKST-NH2 [ZP2649]: in assay [1], the “EC50 of cAMP formation, HEK293 cells expressing human GLP-1R” value turned out to be 100 pM. Moreover, the “EC50 of cAMP formation, HEK293 cells expressing human Glucagon-R” value in assay [2] was 300 pM.

Regarding H-HSQGTFTSDYSKYLDRARAEDFVAWLKST-NH2 [ZP2637], the “EC50 of cAMP formation, HEK293 cells expressing human GLP-1R” value in assay [1] is 100 pM. In addition, the “EC50 of cAMP formation, HEK293 cells expressing human Glucagon-R” value in assay [2] stood at 200 pM.

As to H-HSQGTFTSDYSKYLDRARADDFVAWLKSA-NH2 [ZP2634], the “EC50 of cAMP formation, HEK293 cells expressing human GLP-1R” value in assay [1] came to 200 pM. For the same molecule, in assay [2], the “EC50 of cAMP formation, HEK293 cells expressing human Glucagon-R” value came out at 500 pM.

B1: ZP2654 (peptide)
peptide: H-H[dS]QGTFTSDYSKYLDRARADDFVAWLKST-NH2
SMILES: CC(C)C[C@H](NC(=O)[C@H](Cc1c[nH]c2ccccc12)NC(=O)[C@H](C)NC(=O)[C@@H](NC(=O)[C@H](Cc1ccccc1)NC(=O)[C@H](CC(=O)O)NC(=O)[C@H](CC(=O)O)NC(=O)[C@H](C)NC(=O)[C@H](CCCNC(=N)N)NC(=O)[C@H](C)NC(=O)[C@H](CCCNC(=N)N)NC(=O)[C@H](CC(=O)O)NC(=O)[C@H](CC(C)C)NC(=O)[C@H](Cc1ccc(O)cc1)NC(=O)[C@H](CCCCN)NC(=O)[C@H](CO)NC(=O)[C@H](Cc1ccc(O)cc1)NC(=O)[C@H](CC(=O)O)NC(=O)[C@H](CO)NC(=O)[C@@H](NC(=O)[C@H](Cc1ccccc1)NC(=O)[C@@H](NC(=O)CNC(=O)[C@H](CCC(N)=O)NC(=O)[C@@H](CO)NC(=O)[C@@H](N)Cc1c[nH]cn1)[C@@H](C)O)[C@@H](C)O)C(C)C)C(=O)N[C@@H](CCCCN)C(=O)N[C@@H](CO)C(=O)N[C@H](C(N)=O)[C@@H](C)O
On to B1, for which the “EC50 of cAMP formation, HEK293 cells expressing human GLP-1R” value in assay [1] turned out to be 800 pM. For the same molecule, the “EC50 of cAMP formation, HEK293 cells expressing human Glucagon-R” value in assay [2] was determined as 500 pM.

The record behind these values is patent publication US20140127175A1 (ZEALAND PHARMA A S, published 2014).
